Assay results taken from publication PMC7429351, “Comparison of ligand binding and conformational stability of human calmodulin with its homolog from the malaria parasite Plasmodium falciparum” (FASEB BioAdvances, 2020).
“And” between values parts separate entries of the source, which are not always exact repeats. Equal entries are not always repeated. Where two headings read alike, the source gives them in different places.

Tests used:
[1] = biological target: T1, Pf CaM (Plasmodium falciparum, UniProt P62203); assay: ANS binding fluorescence, Pf CaM; settings: 10 μmol/L ANS
T1 construct: properties of the whole protein can be explored with differential scanning calorimetry; made in house; host or cells: E coli
Experimental: (§1) Spectra were collected using a Jobin Yvon Fluoromax‐3 spectrofluorometer at 25°C in the standard assay buffer containing either 1 mmol/L EGTA or 1 mmol/L CaCl2. Spectra were recorded three times, averaged, and corrected by subtracting the appropriate blank. Tyrosine fluorescence was excited at 274 nm, the emission was detected between 285 and 370 nm, and the intensities were recorded at 303 nm. In ANS binding assays, 10 μmol/L of ANS (8‐anilinonaphtalene‐1‐sulfonic acid, Fluka, 10417) was excited at 388 nm in the presence of 2 μmol/L CaM in standard assay buffer, and the emission was monitored from 410 to 600 nm. In experiments with dansyl‐labeled CaM, the fluorophore was excited at 340 nm, and the emission was monitored from 400 to 600 nm.

[2] = biological target: T2, human CaM (Homo sapiens, UniProt P0DP23); assay: ANS binding fluorescence, human CaM; settings: 10 μmol/L ANS
T2 construct: properties of the whole protein can be explored with differential scanning calorimetry; made in house; host or cells: E coli

[3] = biological target: T1, Pf CaM; assay: Calcineurin activity assay, inhibition of Pf CaM function; type: biochemical; settings: for inhibition of Pf CaM function in CaN activity assay: screen of selected Malaria Box compounds
Experimental: (§2) Calcineurin (PPase‐2B, CaN) was purchased from Promega (V6361, isolated from bovine brain). Dephosphorylation of the substrate p‐nitrophenyl phosphate (PNPP, Sigma, 1040) was followed by monitoring the increase in absorbance at 405 nm using a Perkin Elmer EnSpire microplate reader. The CaN activity was assayed by measuring the initial velocities at 28°C in 50 mmol/L Tris, pH 7.5 containing 0.001 unit/μL CaN, 0.1 mg/mL BSA, 20 mmol/L PNPP, 1 mmol/L NiCl2, and various amounts of CaM to determine dose‐response curves for CaN activation by CaM.

[4] = biological target: T3, human CaM (dansyl-labeled) (Homo sapiens, UniProt P0DP23); assay: Dansyl-CaM fluorescence titration, human CaM; type: binding; settings: hyperbolic fit
T3 construct: properties of the whole protein can be explored with differential scanning calorimetry; made in house; host or cells: E coli
Experimental: as §1

[5] = biological target: T2, human CaM; assay: Isothermal titration calorimetry, ligand titrated with human CaCaM; type: binding; settings: ITC, 25°C, 1 mmol/L CaCl2, one set of sites model
Description: (§3) Titration curves were fitted with the models provided by the built‐in Origin software (MicroCal.).

[6] = biological target: T2, human CaM; assay: Calcineurin activity assay, inhibition of human CaM function; type: biochemical
Experimental: as §2

[7] = test system: 3D7 chloroquine sensitive but sulfadoxine resistant strain of P falciparum; parameters: method as in earlier work; settings: blood stage, 3D7 strain; ref MMV website (https://www.mmv.org/mmv-open/malaria-box/malaria-box-supporting-information); cited from earlier work
[8] = biological target: T1, Pf CaM; assay: biochemical; type: binding; settings: ITC
Description: as §3

[9] = biological target: T4, dansyl-labeled Pf CaM (Plasmodium falciparum, UniProt P62203); assay: Dansyl-CaM fluorescence titration, Pf CaM; type: binding; settings: hyperbolic fit
T4 construct: properties of the whole protein can be explored with differential scanning calorimetry; made in house; host or cells: E coli
Experimental: as §1

[10] = Differential scanning calorimetry thermal denaturation; type: physicochemical; settings: DSC; for T m1 / ΔH1 / ΔHv1: first transition; for T m1 / T m2: 1°C/min; for ΔH1 / ΔH2: calorimetric enthalpy; for ΔHv1 / ΔHv2: van't Hoff enthalpy; for T m2 / ΔH2 / ΔHv2: second transition
Experimental: Thermograms were measured in the standard assay buffer complemented with 1 mmol/L EGTA or CaCl2 using a VP‐DSC microcalorimeter (MicroCal). Protein samples at 0.75 mg/mL were heated at a scan rate of 1°C/min with no feedback. Data analysis was performed with the Origin software provided by MicroCal.

[11] = biological target: T5, bovine brain CaN (Bos taurus, UniProt P48452); assay: Calcineurin activation by CaM; type: biochemical; settings: PNPP substrate, 28°C
T5 construct: purchased Promega V6361; host or cells: bovine brain
T5 sequence (P63099 2-170 partner limits assumed, other chains not shown): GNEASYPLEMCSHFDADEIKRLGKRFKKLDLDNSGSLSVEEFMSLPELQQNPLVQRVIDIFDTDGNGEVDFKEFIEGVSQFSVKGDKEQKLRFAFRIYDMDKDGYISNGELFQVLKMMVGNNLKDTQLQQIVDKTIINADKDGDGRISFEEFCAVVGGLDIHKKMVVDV
Experimental: as §2

[12] = biological target: T6, human MLCK (Homo sapiens, UniProt Q15746); assay: MLCK activation by CaM (ADP-Glow); type: biochemical; settings: 30 minutes, room temperature
T6 construct: GST; purchased Sigma M9197
T6 sequence (Q15746 1425-1771 limits assumed): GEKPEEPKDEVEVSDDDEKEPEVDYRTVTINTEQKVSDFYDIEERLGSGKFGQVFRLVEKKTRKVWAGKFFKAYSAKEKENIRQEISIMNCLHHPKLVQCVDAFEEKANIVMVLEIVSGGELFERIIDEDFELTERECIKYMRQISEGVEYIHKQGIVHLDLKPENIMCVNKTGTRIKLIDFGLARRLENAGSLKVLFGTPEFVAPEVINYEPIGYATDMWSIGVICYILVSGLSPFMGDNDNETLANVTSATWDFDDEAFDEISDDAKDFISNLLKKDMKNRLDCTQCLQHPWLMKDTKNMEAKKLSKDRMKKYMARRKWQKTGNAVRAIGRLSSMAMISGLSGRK
Experimental: Myosin light chain kinase (MLCK) was purchased from Sigma (M9197, human, recombinant, GST‐tagged). Enzyme activity was measured in standard buffer complemented with 0.5 mmol/L CaCl2, 2.5 mmol/L MgCl2, and 0.1 mg/mL BSA. When measuring activation by CaM, 20 μL reaction mixtures contained 3.5 ng/μL MLCK, 0.1 mg/mL MLCK substrate (Sigma SCP0196), 50 μmol/L ATP, 0.5 mmol/L DTT, and various amounts of CaM. Samples were incubated for 30 minutes at room temperature then ADP formed during the kinase reaction was detected using the ADP‐Glow Kinase Assay kit (Promega) according to the manufacturer's instructions. Luminescence values proportional to ADP concentration were normalized to maximal intensities obtained at saturating CaM concentrations.

[13] = test system: bovine PDE; assay: PDE activation by CaM; type: biochemical; settings: 150 nmol/L CaM, 1 mmol/L CaCl2
[14] = Differential scanning fluorimetry (nanoDSF, intrinsic fluorescence); type: physicochemical; settings: DSF, 5°C/min, C-domain Tyr fluorescence
Experimental: Denaturation curves were determined by detecting intrinsic protein fluorescence as a function of temperature using the Prometheus instrument (NanoTemper Technologies). Protein samples at 1.0‐1.5 mg/mL were heated at a scan rate of 5°C/min up to 110°C in the standard assay buffer using the designated set and capillaries. Data analysis was performed with the built‐in analysis software.

[15] = CD melting curves at 222 nm; type: physicochemical; settings: CD 222 nm
Experimental: CD spectra were recorded on Jasco J‐720 and J‐810 spectropolarimeters (Jasco) using quartz cuvettes with pathlengths of 1 mm in the far‐UV and 1 cm in the near‐UV range. Samples were measured in the standard assay buffer complemented with 1 mmol/L EGTA or CaCl2 at a protein concentration of 5‐8 μmol/L in the far‐UV and 210 μmol/L in the near‐UV. Spectra were recorded at least three times at a scan speed of 20 nm/min using a bandwidth and response time of 1 nm and 4 seconds, respectively. Secondary structure content was estimated using the BeStSel method available at http://bestsel.elte.hu. ^24 Melting curves were measured in standard assay buffer or 25 mmol/L phosphate, pH 7.0, in the presence of 1 mmol/L EGTA or saturating levels of CaCl2 monitoring the ellipticity at 222 nm for secondary structure changes or at 280 nm to monitor the signal of Tyr residues. A heating rate of 1 or 2°C/min was used. In a well‐sealed 1 mm‐cell, heating up to 110°C was possible.

With O=S(=O)(O)c1cccc2cccc(Nc3ccccc3)c12 [ANS, 8‐anilinonaphthalene‐1‐sulfonic acid] the “ANS binding (fluorescence)” value ([1]; 2 μmol/L CaCaM, compared with human CaCaM) was “approximately twofold higher fluorescence intensity”, the “ANS binding (fluorescence)” value ([1]; 2 μmol/L apoprotein) was “no ANS binding” and the “ANS binding (fluorescence)” value ([2]; 2 μmol/L CaCaM) was “remarkable ANS binding”. The “ANS binding (fluorescence)” value ([2]; 2 μmol/L apoprotein) was “no ANS binding”.

In the case of O=C(NCC(c1ccsc1)N1CCCCCC1)c1ccc(C(F)(F)F)cc1 (stereo not shown) [MMV396672], the “inhibition of Pf CaM function in CaN activity assay” value (shortened to “inhibition of Pf CaM function”) [3] is reported as “showed inhibitory effect”.

OC(CNCC1CCCO1)Cn1c2ccc(Cl)cc2c2cc(Cl)ccc21 (stereo not shown) [MMV396736] gave a Kd [4] of 1.8 ± 0.4 µM, a Kd [5] of 2.5 ± 0.5 µM and an IC50 [6] of 1.6 ± 0.76 µM. For the same molecule, the EC50 [7] was 1.06 µM, the Kd ([8]; 25°C, 1 mmol/L CaCl2, one set of sites model, read-out: K d) was 2.5 ± 0.2 µM and the stoichiometry n ([8]; one set of sites model) was ~ 8 and 7.4 ± 0.1. The Kd [9] was 2.4 ± 0.4 µM, the IC50 [3] was 6.2 ± 1.5 µM and the “inhibition of Pf CaM function” value [3] was “showed inhibitory effect”.

For Cl.N=c1n(CCN2CCCCC2)c2ccccc2n1CC(O)c1cccc(Br)c1 (stereo not shown) [MMV665902], the “inhibition of Pf CaM function” value [3] was “showed inhibitory effect”.

For O=C(Nc1ccc(F)c(Cl)c1)Nc1ccc(Cl)c(Cl)c1 [MMV665953], the “inhibition of Pf CaM function” value [3] was “showed inhibitory effect”.

With CC[C@H](C)[C@H](NC(=O)CN)C(=O)NCC(=O)N[C@@H](C)C(=O)N[C@H](C(=O)N[C@@H](CC(C)C)C(=O)N[C@@H](CCCCN)C(=O)N[C@H](C(=O)N[C@@H](CC(C)C)C(=O)N[C@H](C(=O)N[C@H](C(=O)NCC(=O)N[C@@H](CC(C)C)C(=O)N1CCC[C@H]1C(=O)N[C@@H](C)C(=O)N[C@@H](CC(C)C)C(=O)N[C@H](C(=O)N[C@@H](CO)C(=O)N[C@@H](Cc1c[nH]c2ccccc12)C(=O)N[C@H](C(=O)N[C@@H](CCCCN)C(=O)N[C@@H](CCCNC(=N)N)C(=O)N[C@@H](CCCCN)C(=O)N[C@@H](CCCNC(=N)N)C(=O)N[C@@H](CCC(N)=O)C(=O)N[C@@H](CCC(N)=O)C(N)=O)[C@@H](C)CC)[C@@H](C)CC)[C@@H](C)O)[C@@H](C)O)C(C)C)C(C)C [melittin] the Kd ([8]; K d, one set of sites model, upper limit) was < 0.03 µM.

For “Pf CaCaM: Plasmodium falciparum calmodulin, Ca2+‐saturated form”, the “T m1” value [10] was 92.6 ± 0.1 °C, the ΔH1 [10] was 47.8 ± 0.3 kcal/mol and the ΔHv1 [10] was 44.5 ± 0.3 kcal/mol. The “T m2” value [10] was 125.9 ± 0.2 °C, the ΔH2 [10] was 97.9 ± 2.2 kcal/mol and the ΔHv2 [10] was 65.7 ± 0.8 kcal/mol.

In the case of “Pf CaM: Recombinant Plasmodium falciparum calmodulin (Uniprot P62203) expressed in E coli”, the EC50 [11] is reported as 0.001 µM, the “activation by CaM (elevation of the basal activity)” value [11] is reported as 2.1 fold and the EC50 [12] is reported as ~0.015 µM. The “increase of PDE activity” value [13] was “the same activation effect” and the T m [14] was ~ 51 °C.

In the case of “Pf apoCaM: Plasmodium falciparum calmodulin, Ca2+-free apo form”, the “T m1” value [10] is reported as 54.7 ± 0.2 °C, the ΔH1 [10] is reported as 41.2 ± 1.2 kcal/mol and the ΔHv1 [10] is reported as 48.1 ± 0.4 kcal/mol. For the same molecule, the “T m2” value [10] was 64.3 ± 0.1 °C, the ΔH2 [10] was 33.4 ± 1.2 kcal/mol and the ΔHv2 [10] was 53.5 ± 0.6 kcal/mol. It also gave a T m [14] of 51.2 ± 0.6 °C, a T m ([15]; in phosphate buffer of low ionic strength) of 51.2 ± 0.1 °C and a T m ([15]; standard assay buffer) of 54.4 ± 0.2 °C.
